From publication PMC4310589

Molecular target: purified recombinant full-length PNKP (human) (UniProt Q96T60)

Row | 3'-phosphatase activity of PNKP (50 fmol) in vitro with 25-400 fmol ATXN3-Q29: stimulation [fold] | 3'-phosphatase activity of PNKP (50 fmol) in vitro with 50-200 fmol ATXN3-Q72: decrease [fold] | Substance
1 | 4 |  | ATXN3-Q29 (WT with 29 polyQ repeats) (from UniProt P54252 1-361) (natural protein)
2 |  | 3.5 | ATXN3-Q72 (the pathological form with 72 polyQ repeats) (from UniProt P54252 1-361) (natural protein)
